According to patent publication US20240101667A1, “METHODS FOR IDENTIFYING LILRB-BLOCKING ANTIBODIES” (THE BOARD OF REGENTS OF THE UNIVERSITY OF TEXAS SYSTEM, priority 2020, published 2024):

Experiments:
[1] = system: MLL-AF9 AML cells expressing B3-FL or B3delICD; assay: Immuno-competent mice transplanted with MLL-AF9 AML cells expressing B3-FL or B3delICD; format: in vivo, mouse; details: versus control IgG
From the text: FIGS. 7A-N. Blocking anti-LILRB3 antibody prevents monocytic AML development. (FIG. 7A) Epitope binning of 30 high-affinity IgGs. (FIG. 7B) CFU assay of mouse MLL-AF9 AML cells in the presence of above IgGs (n=3 independent experiments). (FIG. 7C) Binding affinities of the two IgGs from bin #3. (FIG. 7D) Upper: Schematic of treatment. Lower: Percentages of GFP^+ MLL-AF9 mouse AIL cells in peripheral blood (PB), bone marrow (BM), spleen (SPL), and liver (LV) of mice transplanted with AML cells expressing B3-FL or B3delICD and injected with IgG or anti-LILRB3 #1 N297A (n=3 independent mice). (FIG. 7E) Overall survival of mice transplanted with indicated AML cells as above. (FIG. 7F) CFU assay of MLL-AF9 mouse AML cells expressing B3-FL or B3delICD in the presence of IgG or anti-LILRB3 #1 N297A (n=3 independent experiments) (FIG. 7G) Upper: Schematic of treatment. Recipient mice were injected with mouse IgG or anti-mCD8 to deplete CD8 T cells. Lower: Percentages of GFP^+ MLL-AF9 mouse AML cells in peripheral blood (PB), bone marrow (BM), spleen (SPL), and liver (LV) of mice transplanted with AML cells expressing B3-FL or B3delICD and injected with IgG or anti-LILRB3 #1 LALAPG (n=4 mice). (FIG. 7H) Survival of mice as in panel h (n=4 independent mice). (FIG. 7I) Upper: Schematic of treatment. Lower: Whole-body images of NSG mice transplanted with luciferase-expressing THP-1 cells and treated with IgG or anti-LILRB3 #1 N297A (#1NA). (FIG. 7J) Overall survival of the mice shown in panel h (n=3 independent mice). (FIG. 7K) Upper: Schematic of treatment. Lower: Whole-body images of NSG mice transplanted with luciferase-expressing Molm13 cells, injected with activated T cells, and treated with IgG or #1NA. (FIG. 7L) Luciferase signaling as a function of time in mice treated as described in panel k. (FIG. 7M) Overall survival of mice treated as described in panel k (n=3 independent mice). […] The data are presented as mean±s.e.m, and p values were calculated by two-tailed t-test except for FIG. 7E, FIG. 7H, FIG. 7J and FIG. 7M by log-rank test. […]

MLL-AF9 AML cells = assay: CFU assay of mouse MLL-AF9 AML cells; format: cell-based
From the text: FIGS. 7A-N. Blocking anti-LILRB3 antibody prevents monocytic AML development. (FIG. 7A) Epitope binning of 30 high-affinity IgGs. (FIG. 7B) CFU assay of mouse MLL-AF9 AML cells in the presence of above IgGs (n=3 independent experiments). (FIG. 7C) Binding affinities of the two IgGs from bin #3. (FIG. 7D) Upper: Schematic of treatment. Lower: Percentages of GFP^+ MLL-AF9 mouse AIL cells in peripheral blood (PB), bone marrow (BM), spleen (SPL), and liver (LV) of mice transplanted with AML cells expressing B3-FL or B3delICD and injected with IgG or anti-LILRB3 #1 N297A (n=3 independent mice). (FIG. 7E) Overall survival of mice transplanted with indicated AML cells as above. (FIG. 7F) CFU assay of MLL-AF9 mouse AML cells expressing B3-FL or B3delICD in the presence of IgG or anti-LILRB3 #1 N297A (n=3 independent experiments) (FIG. 7G) Upper: Schematic of treatment. Recipient mice were injected with mouse IgG or anti-mCD8 to deplete CD8 T cells. Lower: Percentages of GFP^+ MLL-AF9 mouse AML cells in peripheral blood (PB), bone marrow (BM), spleen (SPL), and liver (LV) of mice transplanted with AML cells expressing B3-FL or B3delICD and injected with IgG or anti-LILRB3 #1 LALAPG (n=4 mice). (FIG. 7H) Survival of mice as in panel h (n=4 independent mice). (FIG. 7I) Upper: Schematic of treatment. Lower: Whole-body images of NSG mice transplanted with luciferase-expressing THP-1 cells and treated with IgG or anti-LILRB3 #1 N297A (#1NA). (FIG. 7J) Overall survival of the mice shown in panel h (n=3 independent mice). (FIG. 7K) Upper: Schematic of treatment. Lower: Whole-body images of NSG mice transplanted with luciferase-expressing Molm13 cells, injected with activated T cells, and treated with IgG or #1NA. (FIG. 7L) Luciferase signaling as a function of time in mice treated as described in panel k. (FIG. 7M) Overall survival of mice treated as described in panel k (n=3 independent mice). (FIG. 7N) Analyses of T cells in peripheral blood of mice treated as described in panel 1 at 22 days after Molm13 AML cell transplantation. Upper: Flow cytometry analyses. Lower: Plot of T cell percentages (n=3 independent mice). The data are presented as mean±s.e.m, and p values were calculated by two-tailed t-test except for FIG. 7E, FIG. 7H, FIG. 7J and FIG. 7M by log-rank test.
FIGS. S6A-J. Development of anti-LILRB3 blocking antibodies for suppressing AML development. (FIG. S6a) Upper: Flow chart of strategy for development of fully humanized antibodies against LILRB3. Lower: The identified antibodies were tested in the LILRB3 chimeric receptor reporter cell assay. (FIG. S6b) ELISA results for LILRB3 binders. (FIG. S6c) EC50 values of the anti-LILRB3 antibodies based on ELISA. (FIG. S6d) Affinities of antibodies #32, #33, #67, and #45 to LILRB3 as determined by Octet. (FIG. S6e) Cross-reactivity of the anti-LILRB3 antibodies with LILRAs evaluated with LILRA binding analyses. (FIG. S6f) Cross-reactivity of the anti-LILRB3 antibodies with other LILRBs evaluated with LILRB binding analyses. (FIG. S6g) Interaction with TRAF2 contributes to the effect of LILRB3 on AML development. […] (FIG. S6j) NF-κB signaling target gene expression (measured by qPCR) in THP-1 cells from BM of xenografted NSG mice treated with anti-LILRB3 #1NA or IgG (n=3 individual samples). […]

B1: anti-LILRB3 #1 N297A: IgG #1 with Fc glycosylation N297A mutation, defective Fc-mediated effector functions (antibody, V domains shown)
VH: EVQLVESGGGVVQPGRSLRLSCAASGFTFSSYGMHWVRQAPGKGLEWVAFIRYDGSNKYYADSVKGRFTISRDNSKNTLYLQMNSLRAEDTAVYYCAKAGFSGWYYYGMDVWGQGTMVTVSS
VL: DIVMTQSPSSLSASVGDRLTITCRASQSISTYLNWYQQKPGKAPKLLIYGASSLQSGVPSRFSGSGSGTDFTLTISSLQPEDFATYFCQQSYGLPLTFGGGTKVDIK
For B1, the “B3del ICD AML development” value [1] was “no detectable difference”, the “development of LILRB3-expressing (B3-FL) AML” value [1] was “significantly delayed development of LILRB3-expressing AML” and the “CFU formation of AML cells expressing mutant LILRB3 that cannot interact with TRAF2” value (MLL-AF9 AML cells; AAA mutant (QEE509-511AAA)) was “did not decrease CFU formation”. For the same molecule, the “CFU formation by B3-FL AML cells” value (MLL-AF9 AML cells; versus IgG) was “decreased CFU formation”.
